In the DeepSol protein solubility set:

Test: soluble on expression in E. coli; label from the status in PepcDB or PDB records

Sequence	soluble on expression in E. coli
MITLFTFGPSFGLPDASPFVMKAELLLKMAGLPYQTARGNLRRAPKGKLPYLDDMGRIVADSTLIRWHIEKTYHVDFDEGLSPAERGTAWAVEKLMEDNLYWAVARVRWLERDNFERGPAQFFNVVPGPLRGLVKVLVRRKVRQMLWAQGLGRHSEQDMTAMAVQGIKAITDILGDKPYLMGNNPCGADATLFAFAASLLSPVFETPIRAAAESHPNLIAYMARMRTRYYPDFQGSGVFAPASAATAGRPEAAFGQQLEHHHHHH	soluble
METLSNIQCFVRSAEAGSFAEAARRLGLTPAGVGKNVARLESNLGVRLFQRSTRRLTLTEAGERFLQEVGGSLEGIQTALANVSSVGNQPSGTLKVSMGLAFGRDYILPLLGEFLERYPDIVPDWHFDNRQVDLIGEGFDAAIGGGFELPPGVVARNLTPGHLILLASPTYLRDKPPIRHPGDLGGFDGIRIRSPQTGRVRSWPLRRRNGEEAPIELRERMTMSDPEATCEVAAMGLGITLVCMQHAYAYLESGALVRVLPDWYVDAGNTSLYYAANKLLPAKTRVFVDFVVDYFRRQDLARRFSAFPTG	not soluble
MGSDKIHHHHHHMDSWNMKGSKMVDVNEITKYLPGFNCGACGYKRCDLFAEALLNKDVKLEDCPFLLRERFKENYEKLKEILKIKGKIKKEEKYIGVIDGYEADFLLKPLPNECSCRETLLIMDKKELKVGDYIRYRPLGCPIPHFAKIIDEYHGFYIIHVVGPSHRITGEKIEYKDVGIAIVVAFEGIVEGKVPEVGKTVKFIPKHCMMQKVHSGVVVQVEGKRVYIEGIDLKVF	not soluble
MGSSHHHHHHGGTGENLYFQGGSGMADERFDSMLLAIAQQQQGIDGILDTFFSFLNRKTDFFTQPDMARRSVQQAMSRYLAEAEEKQRKAKEAQAAAQQQQQQQQQSARTSSRVEVLESEEEVNAVAAAQAAEEAAQRKQELERAQREVAEAKAKKEAAGNEAETGATEAFADTGDAPRGLPPTAANGFAYEKYIFSQSLQEAEVRVPLPAVNVKGKQVSIVITSSHLTVGMKGQPPIVDGDLYSKVRAEECMWTIEDGHTVVVTLYKVNSMEWWKTIFQGDPEIDLQKVIPENSKLDDLDSDTRQTVEKMMYDQRQKMMGKPTSDEQKKQDMLRKFMEAHPEMDFSQAKFC	soluble
MGSDKIHHHHHHMIATTIAMDFCQTVTPSEIATVIDSYARGWFLMADEDSSDLGWYRSRDRCLIPLDNRFRYPRSLRRVLNQQRFEFAISRDFLGTIAGCADRPSTWISDELAEIYQQLQRYGWALSWEAWQGDRLVGGILGVAIGSLFIGESMFYHEPEASKAALVTLVQALQQGGWQVFDVQLTNPHLERFGSFCVSDRQYSAQIQTAIARPAKLVTPTGDRFASQPHSSAASDHG	not soluble
SLKDELHKLSYLDANRILEERLTETRYFSLNSNEYKNFQTSNPNFLFAAVIDGHAGGTIADVARKSLGYYLKKELIEIGVNSKRGGCRERAIVSALKKAHLNFDNDLLNQSKDYFLNGTSKYARTGACSLSVLIDERNYYISNIGDSVGLLIKKHFYLPLNRIHNASEFNEKRKLLEEHPNEEDILVCKICTRDYKTVNNNNTYELCKTPFHLLSHHYDNCYVKGRLQPTRSFGDFHLKKKMFAYSVDGTRLFVPEPHSFPYISAEPELRVMKKHPDDQFIVLMSDGVYEFLNHAQVINVIKTYGASPERAAKELINRVLEAAAYSSGMTMKQLLNLDPSIRRNFYDDVSVVVIKLN	not soluble
MSLAQTQLSYKNKTYQISYEILGDLSLPQILILHGWGADKKLMKQSFCPFLKDFCQIYMDLAGFGNSSVEEILNTQDYANITELFLKQKKLNVCFFMGHSFGGKVSTLLAKEKDTLILLSSAGILAKKSLKVRFKIRIFKILKLFGLGKFYRYFASKDGANLSPIMYETFKKVVDEDFSEIFAKQKAKSLIFWGKSDEATPLYCGEKMHQFLKNSTFYPLEGDHFFFLKHSAFIAQKIKEEGHHHHHH	soluble
MQNDAGQTVELYVPRKCSSSNRIIGPKDHASVQIDFVDVDPETGRMIPGKSTRYAICGAIRRMGESDDAILRLAQKDGLVPRDDVKSN	not soluble
WNRRTEQLTDGLGAQIDPDSMTPASPADIDTLTAWRQGKIIFKDQPLASVVKEMNRYLPQPITITDHRLDQVRIAGVFNTGDSAAFLQALHKSIPVQVILHADGSTELSLPR	not soluble
MLFKARKWILSGASAQKSKSMAHTMLVENGFILPTAKGFYSLLPLGQRVIDKLCRILDVEFQNSGALKIAMPIVGTQQLWEKTGRWEAMGPEMIRFHDRQQNHMCLQPTAEEMCTELIATLSPLKKSQFPLIVYQIGEKFRDEMNPRFGLMRGRQFLMKDMYSFSTDAETSQQTYAQIRQIYDRIFGEILQLDEDVIKVEADSGVHGGHISHEYHLKSSLEEDFVNFCENCKNHNKFEGPGPAKCEKCAENSSKTVQKIPSVEIAHTFHLGTKYSEALGAKFQGKPLDMCCFGIGVTRLLPAAIDLLSVSDKALRLPRAIAPFDAVIIVKKSLMSNVIVEMASSSASRYLKGGILLDDRVEMSAGKRIHDANRLGIPFILVIANETERSLATQKPVIEVFTTHAKSAEPMSQGSMSLDRFVTFVQSTLYGGGGAHDSGHLAHNQVLDQLGSHQH	not soluble
GSHMQTPKETLSERLSALQDKIIDHYENDSKDIDSQIQYWQLIRWENAIFFAAREHGIQTLNHQVVPAYNISKSKAHKAIELQMALQGLAQSAYKTEDWTLQDTCEELWNTEPTHCFKKGGQTVQVYFDGNKDNCMTYVAWDSVYYMTDAGTWDKTATCVSHRGLYYVKEGYNTFYIEFKSECEKYGNTGTWEVHFGNNVIDCNDSMCSTSDDTVSAT	soluble
MVRELKRFGARFTFLFSARRMCPLMTAEGSLPSVEDFWGNCRIARAKGVCSYYEELSRLDEAEVAQYVRSRPVISAYRLAWDIAKFKGACPFFALKGLVEDSQFIVATYPYLFKEDIFRSFLEPYDYGDFVAVVDEAHSLLNIHSLHEYRVSQRDLDLALKEVREYASSARDFIAWLESVLKKASRLKVSRITLLDKQPFLEGLDDLSVVEDVVETIRARKAEEALSLSGPSGIGRVKTMASRIYSWLSVLVRDDSYLFAEKDEGGVLWLIATPLDPSRVVKEPLEKVKAAVLLSGTMPSTKLYMEVLGVSRSFKFVDVNLMYGARGFGRFFTIVAADVTTAYRSRGDSMYRLIASRIAMADRLLPGLKLAVYPSYEVMYRVVERLPADVETIVETRGISLDEVEAKILARDPGEKIIINAVAGGKLVEGVEFVDYEGRNLLSTVIVVGVPFPQPDDYTRKHLEVMASRIGVSNARKLVYLVNPMIKVRQALGRGIRGPEDRALYILMDYRYLRRDLKEVLGMPYHRVVKGAEDFEEAVKAARSRVFGG	soluble
ASMTTPCITILSGHFPKETIYARKTKELVEEYCSIHGYNFYYEESEPLETEEHALHFRRSWIIQQAAEKFPSTEWFLWLDSDVYVNPKNKNKPITSFIDLSDPNILYHTFHEAPWGSYPINTGVKFVHKDALEIEKIVWSLRNEAPWNTFPYEQKTVYEYVFPRIPGRYIVHDPYTLNCIVKAYPEHVKDALFVHMCGTSRAERDEHMEMVAT	soluble
MSELWYTEKQTKNFGITMKVNKTLHTEQTEFQHLEMVETEEFGNMLFLDGMVMTSEKDEFVYHEMVAHVPLFTHPNPEHVLVVGGGDGGVIREILKHPSVKKATLVDIDGKVIEYSKKFLPSIAGKLDDPRVDVQVDDGFMHIAKSENQYDVIMVDSTEPVGPAVNLFTKGFYAGIAKALKEDGIFVAQTDNPWFTPELITNVQRDVKEIFPITKLYTANIPTYPSGLWTFTIGSKKYDPLAVEDSRFFDIETKYYTKDIHKAAFVLPKFVSDLIKLEHHHHHH	soluble
GAMASSVLVTQEPEIELPREPRPNEECLQILGNAEKGAKFLSDAEIIQLVNAKHIPAYKLETLIETHERGVSIRRQLLSKKLSEPSSLQYLPYRDYNYSLVMGACCENVIGYMPIPVGVAGPLCLDEKEFQVPMATTEGCLVASTNRGCRAIGLGGGASSRVLADGMTRGPVVRLPRACDSAEVKAWLETSEGFAVIKEAFDSTSRFARLQKLHTSIAGRNLYIRFQSRSGDAMGMNMISKGTEKALSKLHEYFPEMQILAVSGNYCTDKKPAAINWIEGRGKSVVCEAVIPAKVVREVLKTTTEAMIEVNINKNLVGSAMAGSIGGYNAHAANIVTAIYIACGQDAAQNVGSSNCITLMEASGPTNEDLYISCTMPSIEIGTVGGGTNLLPQQACLQMLGVQGACKDNPGENARQLARIVCGTVMAGELSLMAALAAGHLVKSHMIHNRSKINLQDLQGACTKKTA	soluble
YEGGWTQDKQWEREMNIAQEKYGPIFAKYAAMPIEEVAKDEHAMKMGSRMFATYCSICHGSDAKGALGFPNLADNEWRWGGDPQSIETTILGGRHAIMAAWGDILGEDGVKNVAAYVRTELAGLKLPEGTKADVEAGKQIFSVNCVACHGPEGKGTALVGAPNLTNPGAFIYGSSYAQLQQTIRHGRQGQMPAQEPYLGKEKVHILAAYI	not soluble
MGSDKIHHHHHHMRAAQYLRMSTEHQTYSIDNQRDAIRDYAEIMGYEIVATYEDAGRSGLNLGGRPGLQRLLADVESGRADFETVVVYDVSRWGRFQNIDESAAYEYRCQMAGVRIEFCAEQFANDGSIESDVLKAIKRSMAAEQSRMLSQKVFIGQARLIRMGFRQGSKVGFGLRRLLVDQHGRPKGILSPSEYKSLQTDRIILVLGPPDEIATVRWIFGHFVKTRKTELEMARLLNKRGVLSDLGRPWTRVSVHSVLTNENYIGNSIWNKHSARLRSHQVRNPPELWVRVENILEPIVDRKLFNRAQIVLKTIYRHLTNDEMLAALKALLARRGALSSFIIDAAPDCPPSTRYMSRFGTIVKAYELIGYEPPKNSRYIFVNRRLETMRLQIIEDLLAAVEKRGGIATHVMETDLLRINQEITVAIATGRCRVSSFGYPRWFAKADREPPPDIFVLIRMNPDDLSIRDYLIAPAHEIAGKSELHAINGARLDTYIFPTLNPLIRLAERASVGSAAWN	not soluble
MPMFNTLTSLFKQLLEGQDLAQHSATPELAIACLLSEVAGADQQISAPEQQAKLALLQHLLQCTAEQASDLLMRAEQEVKQSASLYDFTSQLRSLSQTQRFELIKAMWEVANADGTIDPLEDAVIRKAAELLYVDHSQFIRAKLMAADKHQSPE	not soluble
MSLAASKGNLLSPDRILTVAHRGASGYVPEHTILSYETAQKMKADFIELDLQMTKDGKLIVMHDEKLDRTTNGMGWVKDHTLADIKKLDAGSWFNEAYPEKAKPQYVGLKVPTLEEVLDRFGKHANYYIETKSPDTYPGMEEKLIASLQKHKLLGKHSKPGQVIIQSFSKESLVKVHQLQPNLPTVQLLEAKQMASMTDAALEEIKTYAVGAGPDYKALNQENVRMIRSHGLLLHPYTVNNEADMHRLLDWGVTGVFTNYPDLFHKVKKGYEGHHHHHH	soluble
MKYDLIIIGSGSVGAAAGYYATRAGLKVLMTDAHMPPHQQGSHHGDTRLIRHAYGEGEKYVPLVLRAQTLWDELSTHNEEPIFVRSGVVNLGPADSAFLANVARSAQQWQLNVERLDATALMTRWPEIRVPDNYIGLFEADSGFLRSELAITTWLRLAREAGCAQLFNSPVSHIHHDDNGVTIETSEGCYHASKALISAGTWVKALVPELPVQPVRKVFAWFKADGRYSTKNRFPAFTGEMPNGDQYYGFPAENDELKIGKHNGGQLIQAPEERKPFAAVASDGAEAFPFLRNVLPGIGGCLHGAACTYDNSPDEDFIIDTLPGHENTLVITGLSGHGFKFAPVLGEIAADFALGKTPSFDLTPFRLSRFSQ	not soluble
MENKKSFFHLHLISDSTGETLMSAGRAVSAQFHTSMPVEHVYPMIRNQKQLAQVIDLIDKEPGIVLYTIVDQQLAEFLDLRCHAIGVPCVNVLEPIIGIFQTYLGAPSRRRVGAQHALNADYFARIEALNFAMDHDDGQMPETYDDADVVIIGISRTSKTPTSIYLANRGIKTANIPVVPNVPLPESLYAATRPLIVGLVATSDRISQVRENRDLGTTGGFDGGRYTDRATIMEELKYARALCARNNWPLIDVTRRSIEETAAAILALRPRTRLEHHHHHH	soluble
